{
  "source": "paper PMC9974451",
  "origin": "cited, not measured here",
  "target": "Ubc9 (Homo sapiens) (UniProt P63279)",
  "sequence (P63279 2-158)": "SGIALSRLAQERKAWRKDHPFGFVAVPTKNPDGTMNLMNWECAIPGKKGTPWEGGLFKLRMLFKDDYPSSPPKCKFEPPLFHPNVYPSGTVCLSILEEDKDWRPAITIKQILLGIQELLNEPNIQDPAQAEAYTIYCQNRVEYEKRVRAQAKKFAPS",
  "experiment": "differential scanning fluorometry",
  "data": [
    {"substance": "importin 13 (from UniProt O94829)", "values": [
      {"measurement": "Kd", "result": 370, "unit": "nM"}
    ]}
  ]
}
